Measurements published in paper PMC12416549 (2024).
Residue numbers refer to the chain shown, from its start. Names may count otherwise.

T1: TNFR1 (Homo sapiens, UniProt P19438)
T1 chain: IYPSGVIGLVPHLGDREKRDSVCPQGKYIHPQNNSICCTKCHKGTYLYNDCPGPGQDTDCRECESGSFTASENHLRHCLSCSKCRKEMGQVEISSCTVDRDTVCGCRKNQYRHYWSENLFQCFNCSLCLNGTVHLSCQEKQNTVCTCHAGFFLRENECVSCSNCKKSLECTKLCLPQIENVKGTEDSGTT

B1: Q84D (designed binder)
chain: SMEEEVEKAAKEYEKKKKEAIEKHLEKLKAKDKEAAERFLKELEEAAKEYAKDEAKTMSEEEAKRRAKKYKEKVLLSELSEEEDKEIKEAEEKLVRTILKYVEEAAK
B2: A67T (designed binder)
chain: B1 chain with A67T, D84Q
B3: Y13I (designed binder)
chain: B1 chain with Y13I, D84Q
B4: A55K (designed binder)
chain: B1 chain with A55K, D84Q
B5: K11G (designed binder)
chain: B1 chain with K11G, D84Q
B6: K17V (designed binder)
chain: B1 chain with K17V, D84Q
B7: K56L (designed binder)
chain: B1 chain with K56L, D84Q
B8: K27E (designed binder)
chain: B1 chain with K27E, D84Q
B9: A55C (designed binder)
chain: B1 chain with A55C, D84Q
B10: T97P (designed binder)
chain: B1 chain with D84Q, T97P
B11: E104D (designed binder)
chain: B1 chain with D84Q, E104D
B12: E34Q (designed binder)
chain: B1 chain with E34Q, D84Q
B13: E37I (designed binder)
chain: B1 chain with E37I, D84Q
B14: E49A (designed binder)
chain: B1 chain with E49A, D84Q
B15: A20C (designed binder)
chain: B1 chain with A20C, D84Q
B16: E44F (designed binder)
chain: B1 chain with E44F, D84Q
B17: A67V (designed binder)
chain: B1 chain with A67V, D84Q
B18: A36L (designed binder)
chain: B1 chain with A36L, D84Q
B19: L99M (designed binder)
chain: B1 chain with D84Q, L99M
B20: F39E (designed binder)
chain: B1 chain with F39E, D84Q
B21: L40I (designed binder)
chain: B1 chain with L40I, D84Q
B22: E3F (designed binder)
chain: B1 chain with E3F, D84Q
B23: E78G (designed binder)
chain: B1 chain with E78G, D84Q
B24: E92K (designed binder)
chain: B1 chain with D84Q, E92K
B25: K68D (designed binder)
chain: B1 chain with K68D, D84Q
B26: K48Q (designed binder)
chain: B1 chain with K48Q, D84Q
B27: V102T (designed binder)
chain: B1 chain with D84Q, V102T
B28: K64P (designed binder)
chain: B1 chain with K64P, D84Q
B29: I87Y (designed binder)
chain: B1 chain with D84Q, I87Y
B30: A106M (designed binder)
chain: B1 chain with D84Q, A106M
B31: A106N (designed binder)
chain: B1 chain with D84Q, A106N
B32: A30C (designed binder)
chain: B1 chain with A30C, D84Q
B33: V74P (designed binder)
chain: B1 chain with V74P, D84Q
B34: D32L (designed binder)
chain: B1 chain with D32L, D84Q
B35: M2H (designed binder)
chain: B1 chain with M2H, D84Q
B36: A36E (designed binder)
chain: B1 chain with A36E, D84Q
B37: E86G (designed binder)
chain: B1 chain with D84Q, E86G
B38: E26D (designed binder)
chain: B1 chain with E26D, D84Q
B39: K18D (designed binder)
chain: B1 chain with K18D, D84Q
B40: E45I (designed binder)
chain: B1 chain with E45I, D84Q
B41: I21E (designed binder)
chain: B1 chain with I21E, D84Q
B42: V102A (designed binder)
chain: B1 chain with D84Q, V102A
B43: E91G (designed binder)
chain: B1 chain with D84Q, E91G
B44: R96Y (designed binder)
chain: B1 chain with D84Q, R96Y
B45: Y50C (designed binder)
chain: B1 chain with Y50C, D84Q
B46: K68S (designed binder)
chain: B1 chain with K68S, D84Q
B47: M58G (designed binder)
chain: B1 chain with M58G, D84Q
B48: R66Q (designed binder)
chain: B1 chain with R66Q, D84Q
B49: M58P (designed binder)
chain: B1 chain with M58P, D84Q
B50: E91Q (designed binder)
chain: B1 chain with D84Q, E91Q
B51: K93A (designed binder)
chain: B1 chain with D84Q, K93A
B52: A35N (designed binder)
chain: B1 chain with A35N, D84Q
B53: L79F (designed binder)
chain: B1 chain with L79F, D84Q
B54: L76P (designed binder)
chain: B1 chain with L76P, D84Q
B55: K52A (designed binder)
chain: B1 chain with K52A, D84Q
B56: A105C (designed binder)
chain: B1 chain with D84Q, A105C
B57: S80K (designed binder)
chain: B1 chain with S80K, D84Q
B58: A51S (designed binder)
chain: B1 chain with A51S, D84Q
B59: K88F (designed binder)
chain: B1 chain with D84Q, K88F

Target: T1, TNFR1
Experiment: yeast display SC50

Binder	apparent Kd (screen)
B1	3.63 nM
B2	20.2 nM
B3	11.4 nM
B4	6.43 nM
B5	0.446 nM
B6	0.539 nM
B7	1.05 nM
B8	0.956 nM
B9	11.4 nM
B10	7.07 nM
B11	0.956 nM
B12	0.446 nM
B13	0.956 nM
B14	2.73 nM
B15	0.718 nM
B16	1.69 nM
B17	7.78 nM
B18	1.05 nM
B19	3 nM
B20	4.83 nM

Binder	apparent Kd (screen)
B21	0.79 nM
B22	20.2 nM
B23	3 nM
B24	12.5 nM
B25	1.27 nM
B26	0.446 nM
B27	0.446 nM
B28	2.73 nM
B29	12.5 nM
B30	3.99 nM
B31	1.05 nM
B32	0.869 nM
B33	0.446 nM
B34	2.73 nM
B35	0.49 nM
B36	0.446 nM
B37	1.16 nM
B38	0.446 nM
B39	0.956 nM
B40	2.73 nM

Binder	apparent Kd (screen)
B41	0.539 nM
B42	0.49 nM
B43	9.41 nM
B44	3.99 nM
B45	0.956 nM
B46	0.718 nM
B47	22.2 nM
B48	11.4 nM
B49	0.653 nM
B50	11.4 nM
B51	0.79 nM
B52	1.69 nM
B53	2.05 nM
B54	1.54 nM
B55	0.49 nM
B56	1.4 nM
B57	1.54 nM
B58	1.86 nM
B59	0.539 nM
